Reference: FireProtDB (doi:10.1016/j.bpc.2007.01.004)
Values joined by “and” are separate entries in the source; they are usually repeats but may differ in a detail not shown here. Identical values can stand only once.

Settings: Alicyclobacillus acidocaldarius subsp. acidocaldarius, pH 7.5, Phosphate 20 mM, reversible: Yes; for denaturant midpoint (higher = more stable): 20 °C

wild type (from UniProt Q7SIG1)
denaturant midpoint (higher = more stable) (GdnHCl, CD): 1.9 M and 2.2 M
denaturant midpoint (higher = more stable) (GdnHCl, Fluorescence): 1.9 M and 2 M and 2.2 M
denaturant midpoint (higher = more stable) (Urea, CD): 5.9 M and 4.6 M
Tm (Thermal, CD): 91 °C and 86 °C
unfolding enthalpy (van 't Hoff) (Thermal, CD): 105 kcal/mol and 122 kcal/mol and 62.1 kcal/mol
Tm (Thermal, DSC): 86 °C
heat capacity change of unfolding (Thermal, DSC): 3.82 kcal/mol/K
unfolding enthalpy (calorimetric) (Thermal, DSC): 265 kcal/mol and 179 kcal/mol
unfolding enthalpy (van 't Hoff) (Thermal, DSC): 127 kcal/mol and 83.7 kcal/mol
heat capacity change of unfolding (Thermal, DSC, transition: 3): 1.67 kcal/mol/K and 2.15 kcal/mol/K
